Tests used:
[1] = tested on: AncSZ; assay: phosphorylation enrichment, bacterial display (enrichment ratio); higher = better substrate or ligand; peptides without Tyr show the background
[2] = target: FGFR1 (UniProt P11362); assay: as above
[3] = tested on: c-Abl (mouse); assay: as above
[4] = target: FGFR3 (UniProt P22607); assay: as above
[5] = tested on: Fer (mouse); assay: as above
[6] = target: Fyn (UniProt P06241); assay: as above
[7] = target: Jak2 (UniProt O60674); assay: as above
[8] = target: Hck (UniProt P08631); assay: as above
[9] = target: EPHB2 (UniProt P29323); assay: as above
Sequence of EPHB2 (P29323 whole entry, looked up): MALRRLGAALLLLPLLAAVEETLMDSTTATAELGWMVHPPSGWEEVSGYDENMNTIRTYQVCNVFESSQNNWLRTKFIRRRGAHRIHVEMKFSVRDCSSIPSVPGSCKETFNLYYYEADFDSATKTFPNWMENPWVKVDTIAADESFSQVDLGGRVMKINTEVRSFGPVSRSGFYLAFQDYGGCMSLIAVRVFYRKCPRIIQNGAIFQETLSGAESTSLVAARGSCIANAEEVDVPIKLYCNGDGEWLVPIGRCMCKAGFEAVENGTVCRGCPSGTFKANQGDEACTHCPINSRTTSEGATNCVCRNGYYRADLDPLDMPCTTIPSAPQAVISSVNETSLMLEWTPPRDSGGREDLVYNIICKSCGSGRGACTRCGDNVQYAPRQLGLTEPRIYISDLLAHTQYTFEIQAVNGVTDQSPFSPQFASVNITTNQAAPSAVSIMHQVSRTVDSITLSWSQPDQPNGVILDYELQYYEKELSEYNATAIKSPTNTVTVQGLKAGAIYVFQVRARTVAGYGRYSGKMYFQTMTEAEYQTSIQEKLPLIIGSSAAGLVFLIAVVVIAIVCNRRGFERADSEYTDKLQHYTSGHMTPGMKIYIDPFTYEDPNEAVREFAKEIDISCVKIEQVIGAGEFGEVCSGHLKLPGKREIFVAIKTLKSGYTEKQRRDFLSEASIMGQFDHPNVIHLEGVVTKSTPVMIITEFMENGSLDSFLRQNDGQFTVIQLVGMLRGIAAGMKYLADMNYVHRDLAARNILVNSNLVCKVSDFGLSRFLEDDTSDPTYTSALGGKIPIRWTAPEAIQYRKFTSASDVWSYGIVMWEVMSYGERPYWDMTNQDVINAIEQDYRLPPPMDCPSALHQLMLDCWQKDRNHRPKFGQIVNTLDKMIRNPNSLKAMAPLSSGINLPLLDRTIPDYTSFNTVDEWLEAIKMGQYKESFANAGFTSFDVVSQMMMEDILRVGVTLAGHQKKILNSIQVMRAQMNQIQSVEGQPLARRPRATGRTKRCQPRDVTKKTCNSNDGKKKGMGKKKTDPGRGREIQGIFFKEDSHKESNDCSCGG

[10] = target: MERTK (UniProt Q12866); assay: as above
Sequence of MERTK (Q12866 whole entry, looked up): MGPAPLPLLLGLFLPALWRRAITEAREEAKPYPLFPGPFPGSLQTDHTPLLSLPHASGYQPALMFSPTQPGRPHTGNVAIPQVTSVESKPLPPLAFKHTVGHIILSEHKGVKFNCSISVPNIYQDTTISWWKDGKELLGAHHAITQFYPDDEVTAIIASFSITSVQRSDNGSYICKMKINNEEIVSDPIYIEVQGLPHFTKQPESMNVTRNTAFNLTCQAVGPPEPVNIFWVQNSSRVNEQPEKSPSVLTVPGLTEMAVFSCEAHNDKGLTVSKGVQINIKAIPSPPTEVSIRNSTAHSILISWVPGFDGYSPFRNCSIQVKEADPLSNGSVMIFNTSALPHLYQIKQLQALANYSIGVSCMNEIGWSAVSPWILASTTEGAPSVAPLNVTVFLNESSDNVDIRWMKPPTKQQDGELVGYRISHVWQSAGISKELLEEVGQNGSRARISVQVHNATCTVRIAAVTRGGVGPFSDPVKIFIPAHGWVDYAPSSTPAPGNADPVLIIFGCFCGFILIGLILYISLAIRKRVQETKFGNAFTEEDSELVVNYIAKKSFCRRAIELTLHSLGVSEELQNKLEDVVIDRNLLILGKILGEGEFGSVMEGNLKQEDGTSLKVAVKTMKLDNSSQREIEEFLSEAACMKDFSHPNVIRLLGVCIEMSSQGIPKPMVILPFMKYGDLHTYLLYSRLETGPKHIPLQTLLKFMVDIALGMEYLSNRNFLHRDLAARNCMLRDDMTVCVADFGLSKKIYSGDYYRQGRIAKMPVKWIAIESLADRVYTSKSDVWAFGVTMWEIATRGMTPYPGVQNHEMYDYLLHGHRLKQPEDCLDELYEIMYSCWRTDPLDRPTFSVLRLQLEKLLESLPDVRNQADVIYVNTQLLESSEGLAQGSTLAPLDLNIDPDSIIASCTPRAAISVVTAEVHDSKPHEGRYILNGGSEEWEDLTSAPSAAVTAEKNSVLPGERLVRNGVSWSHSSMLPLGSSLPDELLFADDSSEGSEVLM

[11] = target: EPHB1 (UniProt P54762); assay: as above
Sequence of EPHB1 (P54762 whole entry, looked up): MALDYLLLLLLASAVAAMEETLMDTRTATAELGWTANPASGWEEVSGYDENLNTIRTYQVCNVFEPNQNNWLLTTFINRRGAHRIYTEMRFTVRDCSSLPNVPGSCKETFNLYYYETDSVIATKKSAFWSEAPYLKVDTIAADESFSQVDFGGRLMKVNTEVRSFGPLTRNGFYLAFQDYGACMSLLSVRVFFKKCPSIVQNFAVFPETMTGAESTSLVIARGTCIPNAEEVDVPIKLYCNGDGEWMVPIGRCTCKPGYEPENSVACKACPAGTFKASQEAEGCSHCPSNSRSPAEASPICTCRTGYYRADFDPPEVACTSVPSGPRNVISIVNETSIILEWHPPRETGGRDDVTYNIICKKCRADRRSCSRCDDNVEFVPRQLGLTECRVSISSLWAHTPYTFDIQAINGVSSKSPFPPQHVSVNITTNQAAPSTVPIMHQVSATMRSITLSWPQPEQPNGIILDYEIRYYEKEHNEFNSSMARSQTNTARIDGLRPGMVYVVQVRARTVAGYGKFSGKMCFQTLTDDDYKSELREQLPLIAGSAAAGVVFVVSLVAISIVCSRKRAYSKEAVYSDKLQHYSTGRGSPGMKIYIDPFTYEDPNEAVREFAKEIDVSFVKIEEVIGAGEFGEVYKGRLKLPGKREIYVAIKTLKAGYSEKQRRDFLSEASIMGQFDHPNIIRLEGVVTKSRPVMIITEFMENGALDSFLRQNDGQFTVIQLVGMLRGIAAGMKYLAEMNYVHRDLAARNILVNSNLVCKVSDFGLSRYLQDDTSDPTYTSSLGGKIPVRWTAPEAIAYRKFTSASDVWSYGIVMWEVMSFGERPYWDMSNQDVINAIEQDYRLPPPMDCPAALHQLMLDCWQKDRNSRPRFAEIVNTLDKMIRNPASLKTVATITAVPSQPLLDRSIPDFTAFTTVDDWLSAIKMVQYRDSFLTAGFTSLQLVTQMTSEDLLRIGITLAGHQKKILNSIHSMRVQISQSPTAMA

[12] = target: Fes (UniProt P07332); assay: as above
[13] = tested on: c-Src; assay: as above
[14] = target: SHP2-C SH2; assay: SH2 binding enrichment of the phosphorylated peptide, bacterial display (enrichment ratio); higher = better substrate or ligand; peptides without Tyr show the background
[15] = target: c-Src SH2; assay: as above
[16] = target: Grb2 SH2 (UniProt P62993); assay: as above
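For SH2 binding enrichment of the phosphorylated peptide, bacterial display in this document: peptide library displayed on the E. coli surface as eCPX fusions, selected cells deep-sequenced, score is each peptide's frequency after selection divided by its frequency in the input.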
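For phosphorylation enrichment, bacterial display in this document: 11-residue human phosphosite peptides and single-mutation variants displayed on the E. coli surface, counted by deep sequencing, each peptide's frequency after selection divided by its frequency in the unselected input library; frequency after pTyr selection over input frequency; kinase dosed for 20-30% of maximal phosphorylation in three min.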

Sequence of FGFR1 (P11362 whole entry, looked up): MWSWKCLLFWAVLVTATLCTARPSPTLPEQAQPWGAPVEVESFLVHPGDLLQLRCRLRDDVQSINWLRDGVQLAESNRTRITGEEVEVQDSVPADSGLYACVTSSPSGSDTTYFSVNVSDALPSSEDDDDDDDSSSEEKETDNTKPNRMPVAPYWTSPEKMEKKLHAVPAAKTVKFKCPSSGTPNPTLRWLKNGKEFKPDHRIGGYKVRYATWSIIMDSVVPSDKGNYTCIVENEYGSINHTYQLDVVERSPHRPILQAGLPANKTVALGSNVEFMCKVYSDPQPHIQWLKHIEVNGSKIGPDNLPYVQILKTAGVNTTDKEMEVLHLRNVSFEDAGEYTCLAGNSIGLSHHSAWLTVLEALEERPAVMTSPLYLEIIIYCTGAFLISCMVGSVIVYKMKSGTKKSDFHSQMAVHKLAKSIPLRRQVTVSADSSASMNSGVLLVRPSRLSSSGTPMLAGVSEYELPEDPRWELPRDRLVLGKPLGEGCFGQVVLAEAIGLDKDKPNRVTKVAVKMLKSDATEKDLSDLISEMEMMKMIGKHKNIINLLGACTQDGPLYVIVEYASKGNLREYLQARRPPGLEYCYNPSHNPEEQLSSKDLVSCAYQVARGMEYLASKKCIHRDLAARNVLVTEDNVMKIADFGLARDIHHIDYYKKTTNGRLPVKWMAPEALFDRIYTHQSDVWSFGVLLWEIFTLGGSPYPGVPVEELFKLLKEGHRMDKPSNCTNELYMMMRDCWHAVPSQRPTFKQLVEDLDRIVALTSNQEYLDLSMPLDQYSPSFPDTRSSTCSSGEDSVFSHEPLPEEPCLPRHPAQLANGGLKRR
Sequence of Jak2 (O60674 whole entry, looked up): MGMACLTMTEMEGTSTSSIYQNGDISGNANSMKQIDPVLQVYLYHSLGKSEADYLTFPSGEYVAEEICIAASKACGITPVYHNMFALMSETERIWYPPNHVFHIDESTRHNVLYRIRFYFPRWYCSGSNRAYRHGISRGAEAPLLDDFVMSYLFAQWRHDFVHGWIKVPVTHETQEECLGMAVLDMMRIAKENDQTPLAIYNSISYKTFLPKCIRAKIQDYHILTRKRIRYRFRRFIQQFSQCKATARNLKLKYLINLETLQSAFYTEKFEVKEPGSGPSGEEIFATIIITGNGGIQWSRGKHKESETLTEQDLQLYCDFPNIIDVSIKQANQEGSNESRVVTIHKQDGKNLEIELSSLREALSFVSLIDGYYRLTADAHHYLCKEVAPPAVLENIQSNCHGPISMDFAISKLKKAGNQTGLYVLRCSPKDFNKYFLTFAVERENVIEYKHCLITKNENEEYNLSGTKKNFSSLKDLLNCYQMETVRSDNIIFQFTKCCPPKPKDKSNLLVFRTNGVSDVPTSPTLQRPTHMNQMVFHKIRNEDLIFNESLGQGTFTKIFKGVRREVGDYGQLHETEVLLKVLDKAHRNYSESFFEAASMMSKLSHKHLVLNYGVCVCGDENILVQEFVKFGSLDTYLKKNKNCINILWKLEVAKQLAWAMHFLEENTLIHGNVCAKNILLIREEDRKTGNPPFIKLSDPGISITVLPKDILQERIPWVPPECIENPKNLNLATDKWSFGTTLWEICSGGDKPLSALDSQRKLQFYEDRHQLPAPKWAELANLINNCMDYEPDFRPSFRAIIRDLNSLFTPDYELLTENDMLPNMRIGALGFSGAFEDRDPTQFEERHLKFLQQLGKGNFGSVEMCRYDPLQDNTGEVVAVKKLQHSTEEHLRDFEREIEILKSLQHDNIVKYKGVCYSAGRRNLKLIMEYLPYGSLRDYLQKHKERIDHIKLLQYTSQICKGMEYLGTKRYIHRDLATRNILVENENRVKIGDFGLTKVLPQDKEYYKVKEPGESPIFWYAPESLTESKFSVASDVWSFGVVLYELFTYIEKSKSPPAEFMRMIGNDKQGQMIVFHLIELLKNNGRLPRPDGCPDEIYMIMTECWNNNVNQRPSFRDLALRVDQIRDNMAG

Row | Sequence | SH2 binding enrichment [14] | SH2 binding enrichment [15] | SH2 binding enrichment [16] | phosphorylation enrichment [1] | phosphorylation enrichment [2] | phosphorylation enrichment [3] | phosphorylation enrichment [4] | phosphorylation enrichment [5] | phosphorylation enrichment [6] | phosphorylation enrichment [7] | phosphorylation enrichment [8] | phosphorylation enrichment [9] | phosphorylation enrichment [10] | phosphorylation enrichment [11] | phosphorylation enrichment [12] | phosphorylation enrichment [13]
1 | AMGAVYQAAAL [HYOU1_Y421] | 0.503 | 1.08 | 0.79 | 0.686 | 0.58 | 0.98 | 0.612 | 1.63 | 1.91 | 0.566 | 3.19 | 0.512 | 0.431 | 0.534 | 0.615 | 2.81
2 | APQFTYAQGGQ [FLNA_Y1763_YF] | 0.611 | 0.546 | 0.705 | 0.645 | 0.585 | 0.421 | 0.628 | 0.304 | 0.574 | 0.42 | 0.415 | 0.739 | 0.26 | 0.372 | 0.706 | 0.538
3 | ARMTNCGLPRF [TSPAN12_Y138_Y138C_YF] | 1 | 0.74 | 1.06 | 0.58 | 0.387 | 0.591 | 0.453 | 0.352 | 0.322 | 0.492 | 0.358 | 0.421 | 0.368 | 0.292 | 0.689 | 0.323
4 | ASLEAYCKHKF [RXRA_Y403_YF] | 0.868 | 0.767 | 0.963 | 0.83 | 0.654 | 0.687 | 0.915 | 0.585 | 0.468 | 0.697 | 0.519 | 0.66 | 0.556 | 0.572 | 1.07 | 0.497
5 | QNTGGYFDLFG [PTPN11_Y62_D61G_YF] | – | – | – | – | – | 0.27 | – | – | – | 1.26 | – | – | – | – | – | –

More lines, main results first:

Row | SH2 binding enrichment [14] | SH2 binding enrichment [15] | SH2 binding enrichment [16] | Sequence | phosphorylation enrichment [1] | phosphorylation enrichment [2] | phosphorylation enrichment [3] | phosphorylation enrichment [4] | phosphorylation enrichment [5] | phosphorylation enrichment [6] | phosphorylation enrichment [7] | phosphorylation enrichment [8] | phosphorylation enrichment [9] | phosphorylation enrichment [10] | phosphorylation enrichment [11] | phosphorylation enrichment [12] | phosphorylation enrichment [13]
6 | 0.567 | 0.37 | 0.716 | ANNEFYFRVCA | 1.28 | 0.445 | 0.923 | 0.824 | 0.536 | 0.483 | 1.39 | 0.516 | 0.548 | 0.44 | 0.563 | 1.43 | 0.412
7 | 0.491 | 0.367 | 0.61 | ANNEYYFQVCA | 2.03 | 8.62 | 1.01 | 7.38 | 0.614 | 0.607 | 1.68 | 0.706 | 0.768 | 0.73 | 0.957 | 1.5 | 0.892
8 | 0.672 | 0.439 | 0.691 | APEVIYATPGA [ABLtide_2014] | 2.58 | 0.879 | 34.4 | 0.868 | 11.6 | 8.17 | 0.839 | 9.6 | 8.54 | 8.2 | 3.19 | 1.14 | 5.95
9 | 0.611 | 0.384 | 0.819 | ARSMEYLAEQK [MST1R_Y1198] | 0.755 | 0.471 | 0.655 | 0.622 | 0.403 | 0.585 | 1.08 | 0.622 | 0.493 | 0.548 | 0.488 | 0.839 | 0.474

Reference: the supplement of paper PMC10065799, “High-throughput profiling of sequence recognition by tyrosine kinases and SH2 domains using bacterial peptide display” (eLife, 2023)
